# Source: patent US20240270821A1, “GIP/GLP1/GCG TRI-RECEPTOR AGONISTS AND USES THEREOF” (priority 2023, published 2024)
# Changes are numbered by the printed parent chain.
# T1: human GIP receptor (human) (UniProt P48546)
# T1 sequence (looked up): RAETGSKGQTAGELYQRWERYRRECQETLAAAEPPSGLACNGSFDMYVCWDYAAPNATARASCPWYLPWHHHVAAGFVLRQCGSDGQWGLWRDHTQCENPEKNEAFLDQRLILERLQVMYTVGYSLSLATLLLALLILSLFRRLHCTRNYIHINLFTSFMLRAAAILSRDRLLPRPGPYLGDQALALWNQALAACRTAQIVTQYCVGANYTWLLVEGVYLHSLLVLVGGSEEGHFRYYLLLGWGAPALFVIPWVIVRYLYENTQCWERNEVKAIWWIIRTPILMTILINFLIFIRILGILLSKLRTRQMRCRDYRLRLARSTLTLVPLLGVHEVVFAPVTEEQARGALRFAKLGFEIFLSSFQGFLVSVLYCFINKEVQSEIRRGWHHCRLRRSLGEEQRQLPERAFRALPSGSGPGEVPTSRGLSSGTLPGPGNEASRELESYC
# B1: Example 473 (peptide)
# chain: YXQGTXTSDXXIXLDXKAQXNFIEXLIEGGPSSGEPEPSEG
# modifications: synthetic construct; SITE 2: note = 2-Aminoisobutyric Acid; SITE 6: note = alpha-methyl-2-fluoro-L-phenylalanine; SITE 10: note = 3-(4-Pyridyl)-L-alanine; SITE 11: note = alpha-methyl-L-serine; SITE 13: note = alpha-methyl-leucine; SITE 16: note = L-ornithine; SITE 17: note = Lysine is chemically mo
# B2: Example 474 (peptide)
# chain: B1 chain with S39E
# modifications: synthetic construct; SITE 2: note = 2-Aminoisobutyric Acid; SITE 6: note = alpha-methyl-2-fluoro-L-phenylalanine; SITE 10: note = 3-(4-Pyridyl)-L-alanine; SITE 11: note = alpha-methyl-L-serine; SITE 13: note = alpha-methyl-leucine; SITE 16: note = L-ornithine; SITE 17: note = Lysine is chemically mo
# B3: Example 475 (peptide)
# chain: B1 chain with X11S, N21X, E37P, S39E
# modifications: synthetic construct; SITE 2: note = 2-Aminoisobutyric Acid; SITE 6: note = alpha-methyl-2-fluoro-L-phenylalanine; SITE 10: note = 3-(4-Pyridyl)-L-alanine; SITE 13: note = alpha-methyl-leucine; SITE 16: note = L-ornithine; SITE 17: note = Lysine is chemically modified through conjugation of the epsil
# B4: Example 476 (peptide)
# chain: B1 chain with N21X, X25Y, E37P, S39E
# modifications: synthetic construct; SITE 2: note = 2-Aminoisobutyric Acid; SITE 6: note = alpha-methyl-2-fluoro-L-phenylalanine; SITE 10: note = 3-(4-Pyridyl)-L-alanine; SITE 11: note = alpha-methyl-L-serine; SITE 13: note = alpha-methyl-leucine; SITE 16: note = L-ornithine; SITE 17: note = Lysine is chemically mo
# B5: Example 477 (peptide)
# chain: B1 chain with X11S, N21X, X25Y, E37P, S39E
# modifications: synthetic construct; SITE 2: note = 2-Aminoisobutyric Acid; SITE 6: note = alpha-methyl-2-fluoro-L-phenylalanine; SITE 10: note = 3-(4-Pyridyl)-L-alanine; SITE 13: note = alpha-methyl-leucine; SITE 16: note = L-ornithine; SITE 17: note = Lysine is chemically modified through conjugation of the epsil
# B6: Example 478 (peptide)
# chain: HXQGTXTSDXXIXLDXKAQXNFIEYLLEGGPSSGEPPPE
# modifications: synthetic construct; SITE 2: note = 2-Aminoisobutyric Acid; SITE 6: note = alpha-methyl-2-fluoro-L-phenylalanine; SITE 10: note = 3-(4-Pyridyl)-L-alanine; SITE 11: note = alpha-methyl-L-serine; SITE 13: note = alpha-methyl-leucine; SITE 16: note = L-ornithine; SITE 17: note = Lysine is chemically mo
# B7: Example 479 (peptide)
# chain: B6 chain with N21A, P37E
# modifications: synthetic construct; SITE 2: note = 2-Aminoisobutyric Acid; SITE 6: note = alpha-methyl-2-fluoro-L-phenylalanine; SITE 10: note = 3-(4-Pyridyl)-L-alanine; SITE 11: note = alpha-methyl-L-serine; SITE 13: note = alpha-methyl-leucine; SITE 16: note = L-ornithine; SITE 17: note = Lysine is chemically mo
# B8: Example 481 (peptide)
# chain: B1 chain with N21X
# modifications: synthetic construct; SITE 2: note = 2-Aminoisobutyric Acid; SITE 6: note = alpha-methyl-2-fluoro-L-phenylalanine; SITE 10: note = 3-(4-Pyridyl)-L-alanine; SITE 11: note = alpha-methyl-L-serine; SITE 13: note = alpha-methyl-leucine; SITE 16: note = L-ornithine; SITE 17: note = Lysine is chemically mo
# B9: Example 482 (peptide)
# chain: B1 chain with X25Y, E37P, S39E
# modifications: synthetic construct; SITE 2: note = 2-Aminoisobutyric Acid; SITE 6: note = alpha-methyl-2-fluoro-L-phenylalanine; SITE 10: note = 3-(4-Pyridyl)-L-alanine; SITE 11: note = alpha-methyl-L-serine; SITE 13: note = alpha-methyl-leucine; SITE 16: note = L-ornithine; SITE 17: note = Lysine is chemically mo
# B10: Example 483 (peptide)
# chain: B1 chain with X25Y, E37P, S39E, E40G, G41E
# modifications: synthetic construct; SITE 2: note = 2-Aminoisobutyric Acid; SITE 6: note = alpha-methyl-2-fluoro-L-phenylalanine; SITE 10: note = 3-(4-Pyridyl)-L-alanine; SITE 11: note = alpha-methyl-L-serine; SITE 13: note = alpha-methyl-leucine; SITE 16: note = L-ornithine; SITE 17: note = Lysine is chemically mo
# B11: Example 486 (peptide)
# chain: YXQGTXTSDXSIXLDXKAQXAFIEYLEEGGPSSGEPPPS
# modifications: synthetic construct; SITE 2: note = 2-Aminoisobutyric Acid; SITE 6: note = alpha-methyl-2-fluoro-L-phenylalanine; SITE 10: note = 3-(4-Pyridyl)-L-alanine; SITE 13: note = alpha-methyl-leucine; SITE 16: note = L-ornithine; SITE 17: note = Lysine is chemically modified through conjugation of the epsil
# B12: Example 487 (peptide)
# chain: B11 chain with X16K, S39E
# modifications: synthetic construct; SITE 2: note = 2-Aminoisobutyric Acid; SITE 6: note = alpha-methyl-2-fluoro-L-phenylalanine; SITE 10: note = 3-(4-Pyridyl)-L-alanine; SITE 13: note = alpha-methyl-leucine; SITE 17: note = Lysine is chemically modified through conjugation of the epsilon-amino group of the Lysine
# Biological target: hGLP-1R (Homo sapiens, UniProt P43220)
# Assay: cell-based or functional assay
# Sequence of hGLP-1R (P43220 24-463): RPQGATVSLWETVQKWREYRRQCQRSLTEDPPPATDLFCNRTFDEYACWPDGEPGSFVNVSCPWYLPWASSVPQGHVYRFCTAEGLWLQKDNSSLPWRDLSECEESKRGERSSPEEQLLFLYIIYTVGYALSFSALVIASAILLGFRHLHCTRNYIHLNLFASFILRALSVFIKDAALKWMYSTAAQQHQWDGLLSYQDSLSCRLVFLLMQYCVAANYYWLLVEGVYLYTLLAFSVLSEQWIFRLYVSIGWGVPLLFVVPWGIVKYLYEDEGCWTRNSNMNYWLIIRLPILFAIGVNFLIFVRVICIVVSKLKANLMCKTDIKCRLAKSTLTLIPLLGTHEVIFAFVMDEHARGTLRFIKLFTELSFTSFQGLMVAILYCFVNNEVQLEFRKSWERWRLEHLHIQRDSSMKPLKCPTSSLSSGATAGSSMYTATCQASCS
Binder,"Relative cAMP EC50, nM (0.1% casein) [nM]","cAMP Rel EC50 (receptor-expressing HEK-293 cells, 1% HSA) [nM]"
B1,0.173,11.4
B2,0.236,10.6
B3,0.254,18.6
B4,0.164,14.6
B5,0.173,18.7
B6,0.243,28.6
B7,0.314,23.5
B8,0.204,14.2
B9,0.177,14.9
B10,0.188,18.2
B11,0.375,35
B12,0.639,27.7

# Biological target: T1, human GIP receptor (human)
# Assay: cell-based or functional assay
Binder,"Relative cAMP EC50, nM (0.1% casein) [nM]","cAMP Rel EC50 (receptor-expressing HEK-293 cells, 1% HSA) [nM]"
B1,0.0101,1.11
B2,0.0125,0.743
B3,0.0173,1.85
B4,0.0131,1.29
B5,0.0127,1.44
B6,0.106,26
B7,0.0905,7.11
B8,0.0164,1.19
B9,0.0139,1.58
B10,0.0133,1.17
B11,0.0262,2.57
B12,0.0286,2.26

# Biological target: human glucagon receptor (human) (UniProt P47871)
# Assay: cell-based or functional assay
# Sequence of human glucagon receptor (human) (P47871 26-477): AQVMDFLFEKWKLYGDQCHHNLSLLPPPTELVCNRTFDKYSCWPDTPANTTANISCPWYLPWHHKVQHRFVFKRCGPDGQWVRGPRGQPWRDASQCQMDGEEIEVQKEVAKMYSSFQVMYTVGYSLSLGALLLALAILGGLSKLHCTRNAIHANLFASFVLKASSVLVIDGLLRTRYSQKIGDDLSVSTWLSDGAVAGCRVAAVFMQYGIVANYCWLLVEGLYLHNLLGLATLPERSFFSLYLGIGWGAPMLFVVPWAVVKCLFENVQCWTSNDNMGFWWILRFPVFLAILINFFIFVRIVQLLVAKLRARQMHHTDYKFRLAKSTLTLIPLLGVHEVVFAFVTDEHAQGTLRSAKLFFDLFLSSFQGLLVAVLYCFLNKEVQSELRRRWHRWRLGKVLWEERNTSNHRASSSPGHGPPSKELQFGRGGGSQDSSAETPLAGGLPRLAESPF
Binder,"Relative cAMP EC50, nM (0.1% casein) [nM]","cAMP Rel EC50 (receptor-expressing HEK-293 cells, 1% HSA) [nM]"
B1,2.72,311
B2,3.88,166
B3,2.24,254
B4,1.34,90.2
B5,5.26,716
B6,8.07,665
B7,5.98,432
B8,1.22,100
B9,1.41,325
B10,1.77,231
B11,4.43,647
B12,5.36,477
